Laboratory results: ChEMBL document CHEMBL1143118, “6-Acetyl-7,7-dimethyl-5,6,7,8-tetrahydropterin is an activator of nitric oxide synthases” (Bioorg Med Chem Lett, 2008)

How the values were obtained:
[1] = substrate: C[C@H](O)[C@H](O)[C@H]1CNc2nc(N)[nH]c(=O)c2N1; assay: (§1) Activity of tetrahydrobiopterin free nNOS
[2] = substrate: CC(=O)C1Nc2c(nc(N)[nH]c2=O)NC1(C)C; assay: as §1

B1: Nitric oxide synthase 1 (Homo sapiens), P29475 (protein)
chain: MEDHMFGVQQIQPNVISVRLFKRKVGGLGFLVKERVSKPPVIISDLIRGGAAEQSGLIQAGDIILAVNGRPLVDLSYDSALEVLRGIASETHVVLILRGPEGFTTHLETTFTGDGTPKTIRVTQPLGPPTKAVDLSHQPPAGKEQPLAVDGASGPGNGPQHAYDDGQEAGSLPHANGLAPRPPGQDPAKKATRVSLQGRGENNELLKEIEPVLSLLTSGSRGVKGGAPAKAEMKDMGIQVDRDLDGKSHKPLPLGVENDRVFNDLWGKGNVPVVLNNPYSEKEQPPTSGKQSPTKNGSPSKCPRFLKVKNWETEVVLTDTLHLKSTLETGCTEYICMGSIMHPSQHARRPEDVRTKGQLFPLAKEFIDQYYSSIKRFGSKAHMERLEEVNKEIDTTSTYQLKDTELIYGAKHAWRNASRCVGRIQWSKLQVFDARDCTTAHGMFNYICNHVKYATNKGNLRSAITIFPQRTDGKHDFRVWNSQLIRYAGYKQPDGSTLGDPANVQFTEICIQQGWKPPRGRFDVLPLLLQANGNDPELFQIPPELVLEVPIRHPKFEWFKDLGLKWYGLPAVSNMLLEIGGLEFSACPFSGWYMGTEIGVRDYCDNSRYNILEEVAKKMNLDMRKTSSLWKDQALVEINIAVLYSFQSDKVTIVDHHSATESFIKHMENEYRCRGGCPADWVWIVPPMSGSITPVFHQEMLNYRLTPSFEYQPDPWNTHVWKGTNGTPTKRRAIGFKKLAEAVKFSAKLMGQAMAKRVKATILYATETGKSQAYAKTLCEIFKHAFDAKVMSMEEYDIVHLEHETLVLVVTSTFGNGDPPENGEKFGCALMEMRHPNSVQEERKSYKVRFNSVSSYSDSQKSSGDGPDLRDNFESAGPLANVRFSVFGLGSRAYPHFCAFGHAVDTLLEELGGERILKMREGDELCGQEEAFRTWAKKVFKAACDVFCVGDDVNIEKANNSLISNDRSWKRNKFRLTFVAEAPELTQGLSNVHKKRVSAARLLSRQNLQSPKSSRSTIFVRLHTNGSQELQYQPGDHLGVFPGNHEDLVNALIERLEDAPPVNQMVKVELLEERNTALGVISNWTDELRLPPCTIFQAFKYYLDITTPPTPLQLQQFASLATSEKEKQRLLVLSKGLQEYEEWKWGKNPTIVEVLEEFPSIQMPATLLLTQLSLLQPRYYSISSSPDMYPDEVHLTVAIVSYRTRDGEGPIHHGVCSSWLNRIQADELVPCFVRGAPSFHLPRNPQVPCILVGPGTGIAPFRSFWQQRQFDIQHKGMNPCPMVLVFGCRQSKIDHIYREETLQAKNKGVFRELYTAYSREPDKPKKYVQDILQEQLAESVYRALKEQGGHIYVCGDVTMAADVLKAIQRIMTQQGKLSAEDAGVFISRMRDDNRYHEDIFGVTLRTYEVTNRLRSESIAFIEESKKDTDEVFSS
[1]
  kcat: 0.136 s⁻¹
[2]
  kcat: 0.0878 s⁻¹
